Laboratory results published in patent US20250250357A1.

Experiments:
[1] = biological target: human MSLN full-length protein (NCBI: AAH09272.1) on stably transfected CHO-K1 or HEK293T cells (human) (UniProt Q13421); assay: FACS on CHO-K1-hMSLN-2C8 cells; antibody […]
[2] = biological target: human MSLN full-length protein (NCBI: AAH09272.1) on stably transfected CHO-K1 or HEK293T cells (human) (UniProt Q13421); assay: FACS on CHO-K1-hMSLN-2C8 cells; antibody 4 nM
[3] = biological target: human MSLN full-length protein (NCBI: AAH09272.1) on stably transfected CHO-K1 or HEK293T cells (human) (UniProt Q13421); assay: FACS on CHO-K1-hMSLN-2C8 cells; antibody 20 nM
[4] = biological target: human MSLN full-length protein (NCBI: AAH09272.1) on stably transfected CHO-K1 or HEK293T cells (human) (UniProt Q13421); assay: FACS on CHO-K1-hMSLN-2C8 cells; antibody 0.8 nM
[5] = biological target: human MSLN full-length protein (NCBI: AAH09272.1) on stably transfected CHO-K1 or HEK293T cells (human) (UniProt Q13421); assay: FACS on CHO-K1-hMSLN-2C8 cells; antibody 100 nM
[6] = biological target: monkey MSLN full-length protein (NCBI: XP_028696439.1) on HEK293T cells (monkey); assay: FACS on HEK293T-monkey MSLN cells; antibody […]
[7] = biological target: monkey MSLN full-length protein (NCBI: XP_028696439.1) on HEK293T cells (monkey); assay: FACS on HEK293T-monkey MSLN cells; antibody 4 nM
[8] = biological target: human MSLN full-length protein (NCBI: AAH09272.1) on stably transfected CHO-K1 or HEK293T cells (human) (UniProt Q13421); assay: FACS on CHO-K1-hMSLN-2C8 cells; antibody 0.032 nM
[9] = biological target: monkey MSLN full-length protein (NCBI: XP_028696439.1) on HEK293T cells (monkey); assay: FACS on HEK293T-monkey MSLN cells; antibody 20 nM
[10] = biological target: human MSLN full-length protein (NCBI: AAH09272.1) on stably transfected CHO-K1 or HEK293T cells (human) (UniProt Q13421); assay: FACS on CHO-K1-hMSLN-2C8 cells; antibody 0.0064 nM
[11] = biological target: monkey MSLN full-length protein (NCBI: XP_028696439.1) on HEK293T cells (monkey); assay: FACS on HEK293T-monkey MSLN cells; antibody 0.8 nM
[12] = biological target: monkey MSLN full-length protein (NCBI: XP_028696439.1) on HEK293T cells (monkey); assay: FACS on HEK293T-monkey MSLN cells; antibody 100 nM
[13] = biological target: human MSLN full-length protein (NCBI: AAH09272.1) on stably transfected CHO-K1 or HEK293T cells (human) (UniProt Q13421); assay: FACS on CHO-K1-hMSLN-2C8 cells; antibody 0.00128 nM
[14] = biological target: monkey MSLN full-length protein (NCBI: XP_028696439.1) on HEK293T cells (monkey); assay: FACS on HEK293T-monkey MSLN cells; antibody 0.032 nM
[15] = biological target: monkey MSLN full-length protein (NCBI: XP_028696439.1) on HEK293T cells (monkey); assay: FACS on HEK293T-monkey MSLN cells; antibody 0.0064 nM
[16] = biological target: monkey MSLN full-length protein (NCBI: XP_028696439.1) on HEK293T cells (monkey); assay: FACS on HEK293T-monkey MSLN cells; antibody 0.00128 nM
[17] = biological target: human MSLN full-length protein (NCBI: AAH09272.1) on stably transfected CHO-K1 or HEK293T cells (human) (UniProt Q13421); assay: FACS on HEK293T-hMSLN-B8 cells; secondary antibody control 1
[18] = biological target: human MSLN full-length protein (NCBI: AAH09272.1) on stably transfected CHO-K1 or HEK293T cells (human) (UniProt Q13421); assay: FACS on CHO-K1-hMSLN-2C5 cells; secondary antibody control 37
[19] = biological target: human MSLN full-length protein (NCBI: AAH09272.1) on stably transfected CHO-K1 or HEK293T cells (human) (UniProt Q13421); assay: FACS on CHO-K1-hMSLN-2C8 cells; secondary antibody control 37
[20] = biological target: human MSLN full-length protein (NCBI: AAH09272.1) on stably transfected CHO-K1 or HEK293T cells (human) (UniProt Q13421); assay: FACS on HEK293T-hMSLN-2A4 cells; secondary antibody control 1
[21] = biological target: human MSLN full-length protein (NCBI: AAH09272.1) on stably transfected CHO-K1 or HEK293T cells (human) (UniProt Q13421); assay: FACS on HEK293T-hMSLN-2A7 cells; secondary antibody control 1
[22] = biological target: human MSLN full-length protein (NCBI: AAH09272.1) on stably transfected CHO-K1 or HEK293T cells (human) (UniProt Q13421); assay: FACS on CHO-K1-hMSLN-2D11 cells; secondary antibody control 37
[23] = biological target: human MSLN full-length protein (NCBI: AAH09272.1) on stably transfected CHO-K1 or HEK293T cells (human) (UniProt Q13421); assay: FACS on CHO-K1-hMSLN clone 2C8, overlay with secondary antibody only
[24] = biological target: human MSLN full-length protein (NCBI: AAH09272.1) on stably transfected CHO-K1 or HEK293T cells (human) (UniProt Q13421); assay: FACS on CHO-K1-hMSLN clone 2C5, overlay with secondary antibody only
[25] = biological target: human MSLN full-length protein (NCBI: AAH09272.1) on stably transfected CHO-K1 or HEK293T cells (human) (UniProt Q13421); assay: FACS on CHO-K1-hMSLN clone 2D11, overlay with secondary antibody only

B1: Tab020 (YP223, rabbitIgG1) (antibody, V domains shown)
VH: QEQLEESGGDLVQPEGSLTLTCKASGLDFSSSYWICWVRQAPGKGLEWIGCRHTFTANTWSASWVNGRFTISRSTSLGTVDLKMTSLTAADTATYFCARDESNNDGWDFKLWGPGTLVTVSS
VL: AYDMTQTPASVSAAVGGTVTIKCQASQSISNYLAWYQQKPGQPPKLLIYQASTLAPGVSSRFKGSGSGTEFTLTISGVECADAATYYCQQGYTSSNVENVFGGGTGVVVGD
FACS fluorescence intensity [1]: 593 | FACS fluorescence intensity [2]: 9000 | FACS fluorescence intensity [3]: 15400 | FACS fluorescence intensity [4]: 2290 | FACS fluorescence intensity [5]: 15300 | FACS fluorescence intensity [6]: 86 | FACS fluorescence intensity [7]: 90 | FACS fluorescence intensity [8]: 206 | FACS fluorescence intensity [9]: 100 | FACS fluorescence intensity [10]: 96 | FACS fluorescence intensity [11]: 88 | FACS fluorescence intensity [12]: 126 | FACS fluorescence intensity [13]: 75 | FACS fluorescence intensity [14]: 85 | FACS fluorescence intensity [15]: 85 | FACS fluorescence intensity [16]: 85 | Mean fluorescence intensity of cells [17]: 24400 | Mean fluorescence intensity of cells [18]: 206000 | Mean fluorescence intensity of cells [19]: 234000 | Mean fluorescence intensity of cells [20]: 15400 | Mean fluorescence intensity of cells [21]: 6580 | Mean fluorescence intensity of cells [22]: 218000 | percent of cells in the APC-A+ gate [23]: 99.4% | percent of cells in the APC-A+ gate [24]: 100% | percent of cells in the APC-A+ gate [25]: 100%
